This note sets out measurements from article doi:10.1101/2021.12.24.474084 (bioRxiv, 2021).

The target of this test is SARS-CoV-2 wild-type receptor binding domain (RBD) (ACROBiosystems, Cat No. SPD-C52H3) (SARS-CoV-2 wild-type (MN908947), UniProt P0DTC2). Description: BLI. (In general: BLI is a label-free optical method that tracks binding on a fibre tip over time.)

B1: XGv347 monoclonal antibody (antibody, V domains shown)
VH: QMQLVQSGPEVKKPGTSVKVSCKASGFTFTDVSSLQWVRQARGQRLEWIGWTVVGTGNTNYAPRFQERVTITTDKSTSTAYMELSSLRSEDTAVYYCAAPFCSETSCSDGFDLWGQGTKVTVS
VL: EIVLTQSPGTLSLSPGDRATLSCRASQSVRISYLAWYQQKPGQAPRLLISGSSSRATGIPDRFSASGSGTDFTLTISRLEPEDFAVYYCQQYANSPWTFGQGTKVEV
For the molecule B1, the binding result is recorded as “binds”.

B2: XGv282 monoclonal antibody (antibody, V domains shown)
VH: VQLVQSGAEVKKPGSSVKVSCKASGDTFSSYTFSWVRQAPGQGLEWMGRSIPIVGKAIYAQEFQGRVTISADRSTTTVYMELSSLRSDDTAVYYCARDQSGFDFFYYDHWGQGTLVAV
VL: QSVLTQPPSASGTPGQRVTISCSGSGSNIGSNTINWYQQLPGTAPKVLIYRNNERPSGVPDRFSGSKSGTSASLTISGLQSEDEAYYHCAAWDDSLNGPVFGGGTKLTVL
On to B2, for which the binding result was “binds”.

B3: XGv289 monoclonal antibody (antibody, V domains shown)
VH: QVQLVQSGAEVKKPGASLKVSCRASGYTFTSHFIHWVRQAPGQGLEWMGIINPSGGASYAQNFRDRVTMTTDPSTSTVYMELGSLRSEDTAVYYCARAEGSSWLGWFDPWGQGTLVTVSS
VL: SVLTQPPSASGTPGQRVTIPCSGSSSNIGNNYVYWYQQLPGTAPKLLVYGNNQRPSGVPDRFSVSKSGTSASLAISGLRSEDEADYYCAAWDDGLSGSGWVFGGGTKLTVL
Take B3: the binding result is given as “binds”.

B4: XGv265 monoclonal antibody (antibody, V domains shown)
VH: QITLKESGPTLVKPTQTLTLTCNFSGFSLNTYGVGVGWIRQPPGKALEWLALIYWDGDERYGPFFKNKVTIAKDTSKNQVVLTMTNMDPVDTATYYCARHLIPTIFDYWGQGTLVTVSS
VL: ALTQPASVSGSPGQSITISCTGTSSDVGGSNYVSWYQHHPDRAPKLLIYEVTNRPSGVSNRFSGSKSANTASLTISGLQAEDEADYYCSSYTTTSTHILFGGGTKLTV
As for B4, the binding result is given as “binds”.
